Reference: paper PMC10381965

Target: CENP-ΔQU complex (CENP-Q^1–294 and CENP-U^30–266) (S. cerevisiae) (UniProt P53298)
Assay: ITC; CENP-A^END peptides (0.87 to 2.18 mM) titrated into CENP-QU (66 to 180 μM) in the cell; 20°C; 20 mM Hepes pH 7.5, 100 mM NaCl, 1 mM TCEP; single-site binding model; triplicate

Kd [nM] | fold reduction of affinity against the unchanged CENP-A^END peptide [fold] | Binder
11500 |  | Ac-DASINDRALSLLQRTRATDAW-NH2 [CENP-A^END-1 peptide]
720 |  | Ac-AGDQQSINDRALSLLQRTRATKNLFPRREERRRW-NH2 [CENP-A^END-3 peptide]
 | 15 | Ac-AGDQQSINDAALSLLQRTRATKNW-NH2 [CENP-A^END-2-R37A peptide]
1000 |  | Ac-AGDQQSINDRALSLLQRTRATKNW-NH2 [CENP-A^END-2 peptide]
